This is an account of results in patent US20240342284A1 (ARSENAL BIOSCIENCES, published 2024).

The target of one experiment is T1, recombinant mouse PSMA (mouse, UniProt O35409 45-752, limits assumed).
T1 construct: also called mouse homolog of PSMA
Nature of the experiment: BLI (Octet R8), antibody on anti-mouse capture biosensors, recombinant antigen as analyte. The method, then:
(§1) The binding affinity of recombinant CA9 antibodies to human CA9 target antigen and cross-reactivity to mouse homologs was measured on the Octet R8. Briefly, recombinant antibody was loaded onto anti-mouse capture (AMC) Octet biosensors. Biosensors were then dipped into different concentrations of recombinant target antigen (analyte) solution, and the rate of protein-protein complex formation (association) measured. Protein-protein dissociation rates were measured when the biosensors were dipped into kinetic buffer alone. The Octet Analysis Studio 13.0 software calculated the response in equilibrium (Req) using the association and dissociation signal. The KD value and other kinetics parameters were determined by the values of Req for each analyte concentration (Table 1).
(§2) The binding affinity of recombinant antibodies to human PSMA target antigen and cross-reactivity to mouse homologs was measured on the Octet R8 instrument. […] Biosensors were then dipped into different concentrations of recombinant target antigen (analyte) solution, and the rate of protein-protein complex formation (association) measured. Protein-protein dissociation rates were measured when the biosensors were dipped into kinetic buffer alone. The Octet Analysis Studio 13.0 software calculated the response in equilibrium (Req) using the association and dissociation signal. […]

Experiment [1] deals with T2, human Prostate-Specific Membrane Antigen (PSMA) expressed on cells (human, UniProt Q04609 1-750).
T2 construct: also called FOLH1; HEK293T-PSMA
T2 sequence (Q04609 whole entry): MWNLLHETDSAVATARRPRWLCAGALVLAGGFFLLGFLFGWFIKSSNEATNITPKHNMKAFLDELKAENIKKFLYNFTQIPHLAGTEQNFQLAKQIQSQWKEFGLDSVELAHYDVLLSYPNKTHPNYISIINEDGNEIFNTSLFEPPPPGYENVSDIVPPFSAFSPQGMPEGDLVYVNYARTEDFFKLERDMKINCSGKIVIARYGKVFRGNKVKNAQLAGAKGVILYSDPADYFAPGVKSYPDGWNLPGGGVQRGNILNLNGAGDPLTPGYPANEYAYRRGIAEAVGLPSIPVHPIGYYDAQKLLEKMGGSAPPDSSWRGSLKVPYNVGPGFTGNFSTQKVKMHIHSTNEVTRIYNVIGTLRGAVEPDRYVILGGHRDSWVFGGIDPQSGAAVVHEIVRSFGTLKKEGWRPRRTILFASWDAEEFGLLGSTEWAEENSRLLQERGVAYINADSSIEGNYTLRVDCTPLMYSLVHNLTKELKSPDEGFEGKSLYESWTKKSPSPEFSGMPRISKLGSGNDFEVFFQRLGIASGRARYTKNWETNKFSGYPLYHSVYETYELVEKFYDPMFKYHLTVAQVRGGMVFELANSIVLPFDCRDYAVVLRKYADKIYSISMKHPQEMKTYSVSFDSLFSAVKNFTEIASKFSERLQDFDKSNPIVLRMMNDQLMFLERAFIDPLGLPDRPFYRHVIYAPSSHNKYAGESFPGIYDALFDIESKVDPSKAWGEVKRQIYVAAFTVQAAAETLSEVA
Description: flow cytometry, 8-point serial dilution on HEK293T-PSMA cells, anti-mouse IgG2a-PE secondary, gMFI. Here is the method: (§3) PSMA expressing HEK293T cell lines were used to assess the binding of recombinant antibodies to cell surface expressed PSMA. Briefly, HEK293T parental and HEK293T-PSMA engineered cells were first blocked with human Fc blocker for 10 min at room temperature, stained for 30 min on ice with recombinant antibodies in an 8-point serial dilution, and washed 3 times with BD Stain Buffer. Subsequently, cells were stained for 30 min on ice with anti-mouse IgG2a-PE secondary antibody. Cell surface binding was measured on an Attune flow cytometer, with geometric mean fluorescence intensity (gMFI) data analyzed in FlowJo and plotted using GraphPad Prism. The dose-response curves and EC50 value were analyzed and obtained using the nonlinear fit model of (agonist) versus response (three parameters).
(§4) There was no binding to parental HEK293T cells.

Experiment [2] has as its target T3, mouse PSMA expressed on HEK293T cells (mouse, UniProt O35409 1-752).
T3 construct: whole, on cells; also called HEK293T-mPSMA; mPSMA
Description: flow cytometry histograms on HEK293T-mPSMA cells (panel B, left), axis PSMA 1 ab MFI. The method, then: Cross-reactivity of PSMA 1 to mouse PSMA was evaluated using flow cytometry. In brief, HEK293T cells expressing mouse PSMA (HEK293T-mPSMA) were stained for 30 min on ice with increasing concentrations of PSMA 1-mIgG2a. Target cells were also stained with positive control antibodies to confirm expression of mouse PSMA on the engineered HEK293T cells. Following primary staining, the cells were washed, stained with secondary antibody, and subsequently analyzed by flow cytometry. Data were analyzed using FlowJo.

The target in the next experiment is T4, recombinant human PSMA (human, UniProt Q04609 44-750).
T4 construct: Soluble recombinant antigen used as analyte on the Octet
T4 sequence (Q04609 44-750 limits assumed): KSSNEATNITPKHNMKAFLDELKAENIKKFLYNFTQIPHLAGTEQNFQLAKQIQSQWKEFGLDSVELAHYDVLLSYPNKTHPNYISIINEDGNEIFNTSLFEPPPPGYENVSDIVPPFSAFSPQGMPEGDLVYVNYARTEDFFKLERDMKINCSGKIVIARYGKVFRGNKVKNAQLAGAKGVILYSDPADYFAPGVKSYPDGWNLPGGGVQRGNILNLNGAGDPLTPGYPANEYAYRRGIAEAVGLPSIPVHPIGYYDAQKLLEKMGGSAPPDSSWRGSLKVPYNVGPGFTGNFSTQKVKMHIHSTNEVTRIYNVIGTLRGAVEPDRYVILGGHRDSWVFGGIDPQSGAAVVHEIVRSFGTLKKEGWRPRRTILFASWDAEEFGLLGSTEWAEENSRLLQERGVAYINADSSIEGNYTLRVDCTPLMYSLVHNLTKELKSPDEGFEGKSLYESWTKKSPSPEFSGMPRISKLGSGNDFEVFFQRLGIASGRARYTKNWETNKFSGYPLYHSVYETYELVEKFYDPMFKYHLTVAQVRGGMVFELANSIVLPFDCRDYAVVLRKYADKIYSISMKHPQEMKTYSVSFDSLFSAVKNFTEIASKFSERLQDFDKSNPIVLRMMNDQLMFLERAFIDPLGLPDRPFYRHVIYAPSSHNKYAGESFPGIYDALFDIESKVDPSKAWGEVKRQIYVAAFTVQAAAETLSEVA
Nature of the experiment: BLI (Octet R8), antibody on anti-mouse capture biosensors, recombinant human PSMA as analyte. Here is the method: as §1, with “recombinant” for “recombinant CA9”, “PSMA” for “CA9”, “R8 instrument.” for “R8.”, “2).” for “1).”

In experiment [3] the target is T2, human Prostate-Specific Membrane …. Description: flow cytometry dose curves on HEK293T-PSMA against parental cells (data not shown). The method, then:
as §3
Binding of PSMA 1-mIgG2a or PSMA 2-mIgG2a to PSMA was assessed by cell binding dose curves on parental HEK293T cells and HEK293T-PSMA expressing cell lines. […] (data not shown)

Experiment [4] deals with T5, human CA9 isoform with 91-96 deletion, expressed on HEK293T cells (human, UniProt Q16790 38-459).
T5 construct: also called CA9-91-96del; 91-96del CA9
Nature of the experiment: flow cytometry histograms on the 91-96del CA9 HEK293T line, secondary mouse anti human IgG2 stain.

Experiment [5] has as its target T6, human CA9 isoform with Q326R SNP, expressed on HEK293T cells (human, UniProt Q16790 38-459).
T6 construct: also called CA9-Q326R; Q326R CA9
Description: flow cytometry histograms on the snpQ326R CA9 HEK293T line, secondary mouse anti human IgG2 stain.

Experiment [6] has as its target T7, human Carbonic Anhydrase IX (CA9) expressed on cells (human, UniProt Q16790 38-459). Description: flow cytometry histograms on the wt line 293T-LP81-CA9(CL572), secondary mouse anti human IgG2 stain.
The target in a further experiment is T8, recombinant mouse CA9 (mouse, UniProt Q8VHB5 32-390, limits assumed).
T8 construct: also called mouse homolog of CA9
T8 sequence (Q8VHB5 32-390 limits assumed): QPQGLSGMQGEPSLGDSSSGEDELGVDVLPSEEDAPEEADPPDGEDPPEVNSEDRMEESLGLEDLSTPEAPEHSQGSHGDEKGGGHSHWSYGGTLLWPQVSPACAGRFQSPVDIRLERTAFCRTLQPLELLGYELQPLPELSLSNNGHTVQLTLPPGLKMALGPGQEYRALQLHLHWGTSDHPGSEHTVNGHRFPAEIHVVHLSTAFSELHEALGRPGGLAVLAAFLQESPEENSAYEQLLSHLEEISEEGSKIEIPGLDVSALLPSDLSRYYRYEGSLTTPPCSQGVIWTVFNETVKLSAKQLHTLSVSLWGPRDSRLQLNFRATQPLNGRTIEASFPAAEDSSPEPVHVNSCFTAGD
Nature of the experiment: BLI (Octet R8), antibody on anti-mouse capture biosensors, recombinant antigen as analyte. The method, then: as §1, §2

Experiment [7] has as its target T9, mouse CA9 expressed on HEK293T cells (mouse, UniProt Q8VHB5 32-437).
T9 construct: whole, on cells; also called HEK293T-mCA9; mCA9
Description: flow cytometry histograms on HEK293T-mCA9 cells (panel B, left), axis CA9 1 ab MFI. The text has this: To assess cross-reactivity of CA9 1 to mouse CA9 and further confirm the binding kinetics to human CA9, HEK293T-mCA9 cells were stained with increasing concentrations of CA9 1-mIgG2a then analyzed by flow cytometry. Recombinant CA9 1-mIgG2a protein was titrated against parental and engineered HEK293T cell lines expressing mouse CA9. Target cells were also stained with positive control antibodies to confirm expression of mouse CA9 on the engineered HEK293T cells. Following primary staining, the cells were washed, stained with secondary antibody, and subsequently analyzed by flow cytometry. Data were analyzed using FlowJo. Target cells were also stained using an anti-mouse CA9 positive control antibody to confirm expression of mouse CA9 on the HEK293T-mCA9 cells.

The next experiment deals with recombinant human CA9 (human, UniProt Q16790 38-414). Nature of the experiment: BLI (Octet R8), antibody on anti-mouse capture biosensors, recombinant human CA9 as analyte. Here is the method:
as §1

In experiment [8] the target is T7, human Carbonic Anhydrase IX (CA9) …. Nature of the experiment: flow cytometry, 8-point serial dilution on HEK293T-CA9 cells, anti-mouse IgG2a-PE secondary, gMFI. Here is the method:
(§5) Binding of recombinant CA9 1-mIgG2a and CA9 2-mIgG2a to CA9 was assessed by cell binding dose curves on parental HEK293T cells and HEK293T-CA9 expressing cell lines. Briefly, HEK293T parental and HEK293T-CA9 engineered cells were first blocked with human Fc blocker for 10 min at room temperature, stained for 30 min on ice with recombinant antibodies in an 8-point serial dilution, and washed 3 times with BD Stain Buffer. Subsequently, cells were stained for 30 min on ice with anti-mouse IgG2a-PE secondary antibody. Cell surface binding was measured on an Attune flow cytometer, with geometric mean fluorescence intensity (gMFI) data analyzed in FlowJo and plotted using GraphPad Prism. The dose-response curves and EC50 value were analyzed and obtained using the nonlinear fit model of (agonist) versus response (three parameters).
as §4

For experiment [9] the target is unchanged. Nature of the experiment: flow cytometry on HEK293T-CA9 against parental cells (data not shown). The method, then:
as §5

T9 sequence (Q8VHB5 32-437): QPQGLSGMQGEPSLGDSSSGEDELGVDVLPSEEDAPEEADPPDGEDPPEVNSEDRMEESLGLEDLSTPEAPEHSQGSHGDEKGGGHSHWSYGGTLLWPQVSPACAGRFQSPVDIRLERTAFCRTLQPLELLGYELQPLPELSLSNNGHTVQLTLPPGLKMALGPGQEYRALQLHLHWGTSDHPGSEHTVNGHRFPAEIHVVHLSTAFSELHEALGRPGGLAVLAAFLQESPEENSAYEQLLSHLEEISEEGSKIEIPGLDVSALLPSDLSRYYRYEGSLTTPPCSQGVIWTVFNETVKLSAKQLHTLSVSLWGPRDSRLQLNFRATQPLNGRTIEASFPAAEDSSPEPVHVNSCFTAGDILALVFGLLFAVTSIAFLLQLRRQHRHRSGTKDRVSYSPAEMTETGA
T3 sequence (O35409 whole entry): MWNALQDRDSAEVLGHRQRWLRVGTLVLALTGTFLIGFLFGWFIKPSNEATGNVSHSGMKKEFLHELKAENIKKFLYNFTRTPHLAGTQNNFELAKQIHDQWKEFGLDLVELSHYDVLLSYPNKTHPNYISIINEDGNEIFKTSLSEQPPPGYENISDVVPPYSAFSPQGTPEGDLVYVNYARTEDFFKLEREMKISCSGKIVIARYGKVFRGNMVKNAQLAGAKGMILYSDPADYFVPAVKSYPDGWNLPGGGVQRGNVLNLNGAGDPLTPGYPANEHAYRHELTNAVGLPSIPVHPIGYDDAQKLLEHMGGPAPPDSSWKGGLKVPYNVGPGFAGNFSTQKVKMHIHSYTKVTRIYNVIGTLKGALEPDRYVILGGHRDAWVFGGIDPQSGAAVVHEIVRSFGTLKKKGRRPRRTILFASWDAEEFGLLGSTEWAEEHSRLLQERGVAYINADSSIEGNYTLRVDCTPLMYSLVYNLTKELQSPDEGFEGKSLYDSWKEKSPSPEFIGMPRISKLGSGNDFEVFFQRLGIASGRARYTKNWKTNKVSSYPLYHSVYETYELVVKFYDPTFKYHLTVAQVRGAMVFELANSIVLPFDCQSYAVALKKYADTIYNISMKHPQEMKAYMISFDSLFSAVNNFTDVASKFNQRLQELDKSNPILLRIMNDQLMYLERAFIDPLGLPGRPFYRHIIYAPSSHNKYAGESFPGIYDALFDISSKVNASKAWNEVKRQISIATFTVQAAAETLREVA
T1 sequence (O35409 45-752 limits assumed): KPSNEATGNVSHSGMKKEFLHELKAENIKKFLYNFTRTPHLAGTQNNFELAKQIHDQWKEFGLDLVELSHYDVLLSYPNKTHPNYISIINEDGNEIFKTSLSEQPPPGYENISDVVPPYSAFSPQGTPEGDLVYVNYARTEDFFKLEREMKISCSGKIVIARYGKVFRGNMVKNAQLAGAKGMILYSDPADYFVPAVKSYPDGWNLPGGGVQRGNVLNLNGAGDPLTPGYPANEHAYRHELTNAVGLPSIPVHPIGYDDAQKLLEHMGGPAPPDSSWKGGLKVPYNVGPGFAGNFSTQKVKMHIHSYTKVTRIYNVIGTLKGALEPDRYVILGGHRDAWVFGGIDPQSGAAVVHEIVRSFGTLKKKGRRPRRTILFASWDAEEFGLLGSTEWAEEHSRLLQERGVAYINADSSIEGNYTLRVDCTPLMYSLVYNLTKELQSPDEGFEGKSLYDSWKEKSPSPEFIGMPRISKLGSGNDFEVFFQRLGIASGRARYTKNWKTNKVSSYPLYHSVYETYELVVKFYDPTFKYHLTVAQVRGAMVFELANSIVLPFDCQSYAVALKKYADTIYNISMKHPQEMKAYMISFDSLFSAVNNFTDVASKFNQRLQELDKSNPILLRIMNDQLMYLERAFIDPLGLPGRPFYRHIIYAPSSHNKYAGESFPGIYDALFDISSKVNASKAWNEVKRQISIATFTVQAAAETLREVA

B1: PSMA 1-mIgG2a (antibody, V domains shown)
VH: QVQLVQSGPEVKKPGASVKVSCKASGYTFTSYGITWVRQAPGQGLEWMGWISEYNGNTNYAQKFQGRVTMTIDTSTTTAYMELRSLRSDDTAVYFCARGGILPYYFFYYMDVWGKGTTVTVSS
VL: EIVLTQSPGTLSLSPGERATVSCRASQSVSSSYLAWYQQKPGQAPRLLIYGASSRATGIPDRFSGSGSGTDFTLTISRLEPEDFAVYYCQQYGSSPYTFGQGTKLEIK
notes: Fully human VH and VL cloned into vectors with mouse IgG2a constant domains (chimeric, expressed in CHO); also called PSMA 1 antigen biding fragment
On to B1, for which the binding result with recombinant mouse PSMA is on record as “no binding”. In experiment [1], this molecule yielded an EC50 of 1.86 nM. Besides, the binding result in experiment [2] was “no binding (tested: 30 µg/mL)”. In addition, in the experiment with recombinant human PSMA, the Kd stood at 0.3 nM, the off-rate (koff) was 1.89e-05 s⁻¹ and the on-rate constant (kon) was determined as 63300 M⁻¹ s⁻¹.

B2: PSMA 2-mIgG2a (antibody, V domains shown)
VH: QVQLVQSGAEVKKPGASVKVSCKASGYTFSSYGVSWVRQAPGQGLEWMGWISKYNGNTNYAQKFQGRVTMTTDTSTSTAYMELRSLRSDDTAVYFCARGGIHGDSYYFYYLDVWGKGTTVTVSS
VL: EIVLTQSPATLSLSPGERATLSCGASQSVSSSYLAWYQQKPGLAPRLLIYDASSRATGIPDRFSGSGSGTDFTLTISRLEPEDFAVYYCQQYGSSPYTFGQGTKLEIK
notes: Fully human VH and VL cloned into vectors with mouse IgG2a constant domains (chimeric, expressed in CHO)
Consider B2, for which, in experiment [3], the binding result is “binds”.

B3: CA9 1 scFv (scFv)
scFv: QVQLVQSGAEVKKPGASVKVSCKASGYTFTSYYMHWVRQAPGQGLEWMGIINPSRGSASYAQKFQGRVTMARDTSTSTVYMELSSLRSEDTAVYYCARDRNYYYYMDVWGKGTTVTVSSGGGGSGGGGSGGGGSEIVMTQSPATLSVSPGERATLSCRASQNISSNLAWYQQKPGQAPRLLIYGASTRATDIPARFSGSGSGTEFTLTISSLQSEDFAVYYCQQYITWYTFGQGTKLEIK
notes: Used to stain the CA9 isoform cell lines; It was detected with a secondary 'mouse anti human IgG2' stain
On to B3, for which the binding result in experiment [4], in experiment [5] and in [6] was “binds” throughout.

B4: CA9 1-mIgG2a (antibody, V domains shown)
VH: QVQLVQSGAEVKKPGASVKVSCKASGYTFTSYYMHWVRQAPGQGLEWMGIINPSRGSASYAQKFQGRVTMARDTSTSTVYMELSSLRSEDTAVYYCARDRNYYYYMDVWGKGTTVTVSS
VL: EIVMTQSPATLSVSPGERATLSCRASQNISSNLAWYQQKPGQAPRLLIYGASTRATDIPARFSGSGSGTEFTLTISSLQSEDFAVYYCQQYITWYTFGQGTKLEIK
notes: Fully human VH and VL cloned into mammalian expression vectors with mouse IgG2a constant domains (chimeric antibody, expressed in CHO); also called CA9 1 antigen biding fragment
For the molecule B4, the binding result with recombinant mouse CA9 was “no binding”. Further, the binding result in experiment [7] is listed as “no binding (tested: 30 µg/mL)”. Moreover, in the experiment with recombinant human CA9, the dissociation constant Kd came to 0.15 nM, the koff worked out at 4.9e-05 s⁻¹ and the kon is 325000 M⁻¹ s⁻¹. For the same molecule, the response in experiment [8] was half-maximal at 0.92 nM (EC50).

B5: CA9 2 scFv (as printed; CA9 2 is a VH-only single domain) (VHH)
VHH: EVQLVESGGGLVQPGGSLRLSCAASGFSFSDYSGMSWVRQAPGKGEELVSAISPGGGDTYYADSVKGRFTISRDNSKNTLYLQMNSLRAEDTAVYYCARRWWYYSNHSGDYDYFDYRGQGTLVTVSS
notes: It was detected with a secondary 'mouse anti human IgG2' stain
For B5, the binding result in experiment [4], in [5] and in experiment [6] was “binds” throughout.

B6: CA9 2-mIgG2a (antibody, V domains shown)
VH: EVQLVESGGGLVQPGGSLRLSCAASGFSFSDYSGMSWVRQAPGKGEELVSAISPGGGDTYYADSVKGRFTISRDNSKNTLYLQMNSLRAEDTAVYYCARRWWYYSNHSGDYDYFDYRGQGTLVTVSS
Consider B6, for which the binding result in [9] is listed as “binds”.
